Patent US8642284

How the values were obtained:
[1] = target: histone H4 (calf thymus), P62803
[2] = target: histone H2B (calf thymus), P62808
[3] = target: histone H4 N-terminal tail peptide (residues 1-20) acetylated at Lys16
[4] = target: histone H2A (calf thymus), P0C0S9
[5] = target: unacetylated histone H3 N-terminal tail peptide (residues 1-20)
[6] = target: histone H3 N-terminal tail peptide (residues 1-20) di-acetylated at lysines 9 and 14
[7] = target: histone H3 (calf thymus), intact protein, P68432

B1: recombinant 6xHis-tagged full-length mSir2α (protein)
chain: MADEVALALQAAGSPSAAAAMEAASQPADEPLRKRPRRDGPGLGRSPGEPSAAVAPAAAGCEAASAAAPAALWREAAGAAASAEREAPATAVAGDGDNGSGLRREPRAADDFDDDEGEEEDEAAAAAAAAAIGYRDNLLLTDGLLTNGFHSCESDDDDRTSHASSSDWTPRPRIGPYTFVQQHLMIGTDPRTILKDLLPETIPPPELDDMTLWQIVINILSEPPKRKKRKDINTIEDAVKLLQECKKIIVLTGAGVSVSCGIPDFRSRDGIYARLAVDFPDLPDPQAMFDIEYFRKDPRPFFKFAKEIYPGQFQPSLCHKFIALSDKEGKLLRNYTQNIDTLEQVAGIQRILQCHGSFATASCLICKYKVDCEAVRGDIFNQVVPRCPRCPADEPLAIMKPEIVFFGENLPEQFHRAMKYDKDEVDLLIVIGSSLKVRPVALIPSSIPHEVPQILINREPLPHLHFDVELLGDCDVIINELCHRLGGEYAKLCCNPVKLSEITEKPPRPQKELVHLSELPPTPLHISEDSSSPERTVPQDSSVIATLVDQATNNNVNDLEVSESSCVEEKPQEVQTSRNVENINVENPDFKAVGSSTADKNERTSVAETVRKCWPNRLAKEQISKRLEGNQYLFVPPNRYIFHGAEVYSDSEDDVLSSSSCGSNSDSGTCQSPSLEEPLEDESEIEEFYNGLEDDTERPECAGGSGFGADGGDQEVVNEAIATRQELTDVNYPSDKS
With B1 the “ADP-ribosylation (transfer of 32P from NAD, SDS-PAGE)” value [1] was “but not to H1, H2A and H4”, the “ADP-ribosylation (transfer of 32P from NAD, SDS-PAGE)” value [2] was “transferred radioactive ADP-ribose to H2B and H3” and the “ADP-ribosyltransferase and NAD hydrolase activities (thin layer chromatography)” value [3] was “Both ADP-ribosylation and NAD hydrolysis were stimulated by the Lys16Ac peptide”. The “ADP-ribosylation (transfer of 32P from NAD, SDS-PAGE)” value [4] was “but not to H1, H2A and H4”, the “ADP-ribosylation of peptide (32P-NAD, thin layer chromatography)” value [5] was “modified only the diacetylated H3 tail peptide (unacetylated peptide not modified)” and the “ADP-ribosylation (transfer of 32P from NAD, SDS-PAGE)” value (histone H1 (calf thymus)) was “but not to H1, H2A and H4”. The “ADP-ribosylation of peptide (32P-NAD, thin layer chromatography)” value [6] was “Both the yeast and mouse Sir2 modified only the diacetylated H3 tail peptide”, the “NAD-dependent deacetylation (HPLC)” value [6] was “gave rise to the same array of products with a similar yield as the yeast enzyme” and the “ADP-ribosylation (transfer of 32P from NAD, SDS-PAGE)” value [7] was “transferred radioactive ADP-ribose to H2B and H3”.

B2: recombinant mSir2α mutant H355A (protein)
chain: MADEVALALQAAGSPSAAAAMEAASQPADEPLRKRPRRDGPGLGRSPGEPSAAVAPAAAGCEAASAAAPAALWREAAGAAASAEREAPATAVAGDGDNGSGLRREPRAADDFDDDEGEEEDEAAAAAAAAAIGYRDNLLLTDGLLTNGFHSCESDDDDRTSHASSSDWTPRPRIGPYTFVQQHLMIGTDPRTILKDLLPETIPPPELDDMTLWQIVINILSEPPKRKKRKDINTIEDAVKLLQECKKIIVLTGAGVSVSCGIPDFRSRDGIYARLAVDFPDLPDPQAMFDIEYFRKDPRPFFKFAKEIYPGQFQPSLCHKFIALSDKEGKLLRNYTQNIDTLEQVAGIQRILQCAGSFATASCLICKYKVDCEAVRGDIFNQVVPRCPRCPADEPLAIMKPEIVFFGENLPEQFHRAMKYDKDEVDLLIVIGSSLKVRPVALIPSSIPHEVPQILINREPLPHLHFDVELLGDCDVIINELCHRLGGEYAKLCCNPVKLSEITEKPPRPQKELVHLSELPPTPLHISEDSSSPERTVPQDSSVIATLVDQATNNNVNDLEVSESSCVEEKPQEVQTSRNVENINVENPDFKAVGSSTADKNERTSVAETVRKCWPNRLAKEQISKRLEGNQYLFVPPNRYIFHGAEVYSDSEDDVLSSSSCGSNSDSGTCQSPSLEEPLEDESEIEEFYNGLEDDTERPECAGGSGFGADGGDQEVVNEAIATRQELTDVNYPSDKS
With B2 the “mono-ADP-ribosylation activity relative to wild type (Phosphorimaging)” value [2] was “completely abolished the activity”.

B3: recombinant mSir2α mutant R266A (protein)
chain: MADEVALALQAAGSPSAAAAMEAASQPADEPLRKRPRRDGPGLGRSPGEPSAAVAPAAAGCEAASAAAPAALWREAAGAAASAEREAPATAVAGDGDNGSGLRREPRAADDFDDDEGEEEDEAAAAAAAAAIGYRDNLLLTDGLLTNGFHSCESDDDDRTSHASSSDWTPRPRIGPYTFVQQHLMIGTDPRTILKDLLPETIPPPELDDMTLWQIVINILSEPPKRKKRKDINTIEDAVKLLQECKKIIVLTGAGVSVSCGIPDFASRDGIYARLAVDFPDLPDPQAMFDIEYFRKDPRPFFKFAKEIYPGQFQPSLCHKFIALSDKEGKLLRNYTQNIDTLEQVAGIQRILQCHGSFATASCLICKYKVDCEAVRGDIFNQVVPRCPRCPADEPLAIMKPEIVFFGENLPEQFHRAMKYDKDEVDLLIVIGSSLKVRPVALIPSSIPHEVPQILINREPLPHLHFDVELLGDCDVIINELCHRLGGEYAKLCCNPVKLSEITEKPPRPQKELVHLSELPPTPLHISEDSSSPERTVPQDSSVIATLVDQATNNNVNDLEVSESSCVEEKPQEVQTSRNVENINVENPDFKAVGSSTADKNERTSVAETVRKCWPNRLAKEQISKRLEGNQYLFVPPNRYIFHGAEVYSDSEDDVLSSSSCGSNSDSGTCQSPSLEEPLEDESEIEEFYNGLEDDTERPECAGGSGFGADGGDQEVVNEAIATRQELTDVNYPSDKS
For B3, the “mono-ADP-ribosylation activity relative to wild type (Phosphorimaging)” value [2] was 18% for R266A.

B4: recombinant mSir2α mutant P285A (protein)
chain: MADEVALALQAAGSPSAAAAMEAASQPADEPLRKRPRRDGPGLGRSPGEPSAAVAPAAAGCEAASAAAPAALWREAAGAAASAEREAPATAVAGDGDNGSGLRREPRAADDFDDDEGEEEDEAAAAAAAAAIGYRDNLLLTDGLLTNGFHSCESDDDDRTSHASSSDWTPRPRIGPYTFVQQHLMIGTDPRTILKDLLPETIPPPELDDMTLWQIVINILSEPPKRKKRKDINTIEDAVKLLQECKKIIVLTGAGVSVSCGIPDFRSRDGIYARLAVDFPDLPDAQAMFDIEYFRKDPRPFFKFAKEIYPGQFQPSLCHKFIALSDKEGKLLRNYTQNIDTLEQVAGIQRILQCHGSFATASCLICKYKVDCEAVRGDIFNQVVPRCPRCPADEPLAIMKPEIVFFGENLPEQFHRAMKYDKDEVDLLIVIGSSLKVRPVALIPSSIPHEVPQILINREPLPHLHFDVELLGDCDVIINELCHRLGGEYAKLCCNPVKLSEITEKPPRPQKELVHLSELPPTPLHISEDSSSPERTVPQDSSVIATLVDQATNNNVNDLEVSESSCVEEKPQEVQTSRNVENINVENPDFKAVGSSTADKNERTSVAETVRKCWPNRLAKEQISKRLEGNQYLFVPPNRYIFHGAEVYSDSEDDVLSSSSCGSNSDSGTCQSPSLEEPLEDESEIEEFYNGLEDDTERPECAGGSGFGADGGDQEVVNEAIATRQELTDVNYPSDKS
With B4 the “mono-ADP-ribosylation activity relative to wild type (Phosphorimaging)” value [2] was 5% for P285A.
